In patent US10500249B2, “Compositions and methods for preventing or treating diseases, conditions, or processes characterized by aberrant fibroblast proliferation and extracellular matrix deposition” (MOERAE MATRIX, INC., priority 2014, dated 2019):

Tests used:
Experiment in all cases: Kinase Profiling Assay
Type in all cases: biochemical
Conditions in all cases: 100 μM
GSK3α (h) = molecular target: T1, GSK3α (h) (Homo sapiens, UniProt P49840)
T1 construct: purchased Millipore
Outline: (§1)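 In this 266-kinase specificity panel, every measurement was duplicated. Transfer of labeled phosphate from ATP to a cationic substrate was quantified after the substrate adhered to an anionic filter membrane and was scintillation-counted, then related to a full-activity control.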

DMPK (h) = molecular target: T2, DMPK (h) (Homo sapiens, UniProt Q09013)
T2 construct: purchased Millipore
T2 sequence (Q09013 1-629): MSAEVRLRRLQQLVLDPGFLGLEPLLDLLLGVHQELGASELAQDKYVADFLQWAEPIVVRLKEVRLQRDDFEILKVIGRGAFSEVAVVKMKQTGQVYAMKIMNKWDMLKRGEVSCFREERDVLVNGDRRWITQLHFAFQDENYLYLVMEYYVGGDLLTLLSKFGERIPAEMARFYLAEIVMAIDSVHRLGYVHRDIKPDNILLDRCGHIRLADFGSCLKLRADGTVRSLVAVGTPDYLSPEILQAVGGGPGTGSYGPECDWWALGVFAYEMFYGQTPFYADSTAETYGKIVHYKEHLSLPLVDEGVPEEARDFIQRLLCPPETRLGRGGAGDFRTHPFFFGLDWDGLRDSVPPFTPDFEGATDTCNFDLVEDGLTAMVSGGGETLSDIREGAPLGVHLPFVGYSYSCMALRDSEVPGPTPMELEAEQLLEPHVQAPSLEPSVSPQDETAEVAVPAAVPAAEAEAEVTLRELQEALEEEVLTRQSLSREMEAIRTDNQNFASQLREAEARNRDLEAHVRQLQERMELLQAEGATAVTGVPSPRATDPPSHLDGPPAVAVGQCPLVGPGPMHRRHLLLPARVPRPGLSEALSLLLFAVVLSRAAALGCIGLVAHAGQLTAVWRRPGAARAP
Outline: as §1

Yes (h) = Yes (h) (Homo sapiens, UniProt P07947)
Outline: as §1

SIK (h) = SIK (h) (Homo sapiens, UniProt P57059)
Outline: as §1

WNK3 (h) = WNK3 (h) (Homo sapiens, UniProt Q9BYP7)
Outline: as §1

FGFR1 (h) = FGFR1 (h) (Homo sapiens, UniProt P11362)
Outline: as §1

Rsk4 (h) = Rsk4 (h) (Homo sapiens, UniProt Q9UK32)
Outline: as §1

CDK5/p35 (h) = molecular target: T3, CDK5/p35 (h) (Homo sapiens, UniProt Q00535)
T3 construct: purchased Millipore
Outline: as §1

IRR (h) = molecular target: T4, IRR (h) (Homo sapiens, UniProt P14616)
T4 construct: purchased Millipore
Outline: as §1

Itk (h) = molecular target: T5, Itk (h) (Homo sapiens, UniProt Q08881)
T5 construct: purchased Millipore
T5 sequence (Q08881 1-620): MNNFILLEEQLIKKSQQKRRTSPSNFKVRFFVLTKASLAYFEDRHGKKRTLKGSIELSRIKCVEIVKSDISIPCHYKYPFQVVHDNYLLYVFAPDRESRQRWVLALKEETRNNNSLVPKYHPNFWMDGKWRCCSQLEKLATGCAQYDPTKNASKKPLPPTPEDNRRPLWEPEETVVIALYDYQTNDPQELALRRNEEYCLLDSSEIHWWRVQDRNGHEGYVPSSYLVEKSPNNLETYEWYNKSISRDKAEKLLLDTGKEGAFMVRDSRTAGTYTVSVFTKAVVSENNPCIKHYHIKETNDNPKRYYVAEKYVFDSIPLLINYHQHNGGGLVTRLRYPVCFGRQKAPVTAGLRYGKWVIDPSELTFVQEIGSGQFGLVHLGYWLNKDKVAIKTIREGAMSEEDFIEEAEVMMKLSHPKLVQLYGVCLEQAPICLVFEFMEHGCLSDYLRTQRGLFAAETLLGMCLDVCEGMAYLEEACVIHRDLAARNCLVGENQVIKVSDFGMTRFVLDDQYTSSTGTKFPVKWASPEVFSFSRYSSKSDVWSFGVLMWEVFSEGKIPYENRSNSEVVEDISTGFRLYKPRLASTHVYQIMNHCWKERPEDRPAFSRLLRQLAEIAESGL
Outline: as §1

Flt1 (h) = Flt1 (h) (Homo sapiens, UniProt P17948)
Outline: as §1

PKCγ (h) = molecular target: T6, PKCγ (h) (Homo sapiens, UniProt P05129)
T6 construct: purchased Millipore
Outline: as §1

NEK6 (h) = molecular target: T7, NEK6 (h) (Homo sapiens, UniProt Q9HC98)
T7 construct: purchased Millipore
Outline: as §1

Met(Y1248C) (h) = Met(Y1248C) (h) (Homo sapiens, UniProt P08581, Y1230C)
Outline: as §1

MSK1 (h) = molecular target: T8, MSK1 (h) (Homo sapiens, UniProt O75582)
T8 construct: purchased Millipore
Outline: as §1

TrkB (h) = TrkB (h) (Homo sapiens, UniProt Q16620)
Outline: as §1

SAPK4 (h) = molecular target: T9, SAPK4 (h) (Homo sapiens, UniProt O15264)
T9 sequence (O15264 1-365): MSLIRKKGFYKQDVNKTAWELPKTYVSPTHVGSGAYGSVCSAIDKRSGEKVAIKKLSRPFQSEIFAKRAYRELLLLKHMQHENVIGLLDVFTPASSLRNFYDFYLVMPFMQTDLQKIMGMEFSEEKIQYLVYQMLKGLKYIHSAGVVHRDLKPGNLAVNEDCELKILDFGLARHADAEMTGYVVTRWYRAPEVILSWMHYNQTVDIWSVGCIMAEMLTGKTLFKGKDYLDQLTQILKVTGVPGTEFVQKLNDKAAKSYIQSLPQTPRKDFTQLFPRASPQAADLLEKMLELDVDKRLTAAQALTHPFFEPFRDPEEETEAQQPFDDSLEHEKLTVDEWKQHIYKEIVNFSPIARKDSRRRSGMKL
Outline: as §1

Met(Y1248D) (h) = Met(Y1248D) (h) (Homo sapiens, UniProt P08581, Y1230D)
Outline: as §1

T4 sequence (P14616 27-1297): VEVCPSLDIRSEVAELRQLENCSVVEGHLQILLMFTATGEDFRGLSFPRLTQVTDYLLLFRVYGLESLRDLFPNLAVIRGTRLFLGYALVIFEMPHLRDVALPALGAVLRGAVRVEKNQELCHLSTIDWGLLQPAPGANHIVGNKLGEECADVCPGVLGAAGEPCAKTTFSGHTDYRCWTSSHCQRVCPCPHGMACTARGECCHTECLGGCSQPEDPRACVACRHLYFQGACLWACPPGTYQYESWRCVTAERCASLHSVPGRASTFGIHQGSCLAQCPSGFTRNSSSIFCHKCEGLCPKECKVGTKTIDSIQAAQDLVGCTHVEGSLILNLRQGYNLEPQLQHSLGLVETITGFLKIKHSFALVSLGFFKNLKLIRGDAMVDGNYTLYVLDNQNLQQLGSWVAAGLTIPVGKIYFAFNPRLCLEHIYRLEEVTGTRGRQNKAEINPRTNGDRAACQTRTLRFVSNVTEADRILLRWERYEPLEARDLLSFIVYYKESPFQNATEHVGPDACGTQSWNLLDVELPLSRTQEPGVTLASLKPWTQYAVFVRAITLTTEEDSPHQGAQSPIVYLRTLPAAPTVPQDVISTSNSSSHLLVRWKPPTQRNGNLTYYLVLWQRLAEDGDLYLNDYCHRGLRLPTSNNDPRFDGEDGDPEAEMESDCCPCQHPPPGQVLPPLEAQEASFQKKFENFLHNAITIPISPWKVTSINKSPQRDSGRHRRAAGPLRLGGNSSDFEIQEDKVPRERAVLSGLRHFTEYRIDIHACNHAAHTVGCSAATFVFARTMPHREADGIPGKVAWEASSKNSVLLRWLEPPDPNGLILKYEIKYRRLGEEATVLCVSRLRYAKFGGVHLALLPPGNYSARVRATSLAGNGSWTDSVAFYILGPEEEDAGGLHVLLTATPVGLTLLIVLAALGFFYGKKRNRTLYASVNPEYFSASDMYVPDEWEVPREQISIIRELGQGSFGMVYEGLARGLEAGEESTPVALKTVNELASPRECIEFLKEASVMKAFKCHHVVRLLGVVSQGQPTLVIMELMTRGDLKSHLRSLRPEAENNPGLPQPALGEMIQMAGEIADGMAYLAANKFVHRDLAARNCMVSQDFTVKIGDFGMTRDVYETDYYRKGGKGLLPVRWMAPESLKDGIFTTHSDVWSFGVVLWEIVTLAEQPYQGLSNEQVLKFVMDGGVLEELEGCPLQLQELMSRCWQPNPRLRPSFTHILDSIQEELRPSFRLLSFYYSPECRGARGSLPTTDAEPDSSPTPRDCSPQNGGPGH
T8 sequence (O75582 whole entry): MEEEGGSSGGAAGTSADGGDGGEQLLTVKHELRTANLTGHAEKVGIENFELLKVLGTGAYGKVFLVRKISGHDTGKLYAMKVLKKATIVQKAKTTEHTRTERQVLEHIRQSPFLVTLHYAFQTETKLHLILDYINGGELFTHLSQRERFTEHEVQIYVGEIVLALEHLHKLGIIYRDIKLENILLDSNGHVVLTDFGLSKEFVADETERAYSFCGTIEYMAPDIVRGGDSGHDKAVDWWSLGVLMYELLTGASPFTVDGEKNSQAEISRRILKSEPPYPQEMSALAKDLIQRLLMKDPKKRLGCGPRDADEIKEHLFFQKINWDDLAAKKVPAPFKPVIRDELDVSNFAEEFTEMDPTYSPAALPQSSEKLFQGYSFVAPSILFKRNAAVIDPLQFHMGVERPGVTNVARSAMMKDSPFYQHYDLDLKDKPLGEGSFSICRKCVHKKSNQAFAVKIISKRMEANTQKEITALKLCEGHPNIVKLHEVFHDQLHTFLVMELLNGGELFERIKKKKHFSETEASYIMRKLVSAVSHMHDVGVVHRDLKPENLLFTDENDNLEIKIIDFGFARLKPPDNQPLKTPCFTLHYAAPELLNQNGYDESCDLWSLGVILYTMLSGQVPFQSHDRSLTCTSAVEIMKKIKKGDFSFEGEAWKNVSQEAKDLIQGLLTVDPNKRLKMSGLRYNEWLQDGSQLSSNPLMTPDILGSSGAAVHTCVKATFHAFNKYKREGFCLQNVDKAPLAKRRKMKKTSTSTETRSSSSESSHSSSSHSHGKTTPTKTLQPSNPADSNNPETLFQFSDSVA
Chain of FGFR1 (h) (P11362 22-822): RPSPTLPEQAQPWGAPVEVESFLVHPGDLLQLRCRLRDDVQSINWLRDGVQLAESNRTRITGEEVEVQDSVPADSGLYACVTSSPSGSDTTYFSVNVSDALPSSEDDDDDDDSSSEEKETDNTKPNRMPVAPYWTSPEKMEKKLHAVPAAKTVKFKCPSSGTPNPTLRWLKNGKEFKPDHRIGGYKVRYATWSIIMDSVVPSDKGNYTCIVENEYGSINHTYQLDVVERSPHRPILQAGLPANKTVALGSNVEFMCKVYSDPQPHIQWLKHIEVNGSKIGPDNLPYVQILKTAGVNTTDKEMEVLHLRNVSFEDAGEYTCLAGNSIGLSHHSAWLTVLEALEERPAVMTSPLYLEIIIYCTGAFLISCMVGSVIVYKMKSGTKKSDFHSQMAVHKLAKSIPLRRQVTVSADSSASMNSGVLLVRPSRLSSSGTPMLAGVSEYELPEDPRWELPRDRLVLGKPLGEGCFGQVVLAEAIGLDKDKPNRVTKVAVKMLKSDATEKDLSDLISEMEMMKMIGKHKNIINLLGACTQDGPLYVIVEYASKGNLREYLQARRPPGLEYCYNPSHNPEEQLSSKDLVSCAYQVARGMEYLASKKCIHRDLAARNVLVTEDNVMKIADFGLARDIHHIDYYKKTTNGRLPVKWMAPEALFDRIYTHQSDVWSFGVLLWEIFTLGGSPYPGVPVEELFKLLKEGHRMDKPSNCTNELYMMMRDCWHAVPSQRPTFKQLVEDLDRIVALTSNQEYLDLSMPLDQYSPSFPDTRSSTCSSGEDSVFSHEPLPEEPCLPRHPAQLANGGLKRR
T7 sequence (Q9HC98 whole entry): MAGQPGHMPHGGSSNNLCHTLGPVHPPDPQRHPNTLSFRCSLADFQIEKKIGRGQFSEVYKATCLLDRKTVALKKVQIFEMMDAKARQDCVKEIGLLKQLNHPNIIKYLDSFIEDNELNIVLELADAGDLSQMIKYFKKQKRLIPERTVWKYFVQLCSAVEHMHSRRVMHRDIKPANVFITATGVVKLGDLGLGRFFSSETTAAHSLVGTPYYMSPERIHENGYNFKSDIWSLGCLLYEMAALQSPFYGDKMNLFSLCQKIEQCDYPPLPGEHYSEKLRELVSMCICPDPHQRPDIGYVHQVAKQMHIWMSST
Chain of Yes (h) (P07947 whole entry): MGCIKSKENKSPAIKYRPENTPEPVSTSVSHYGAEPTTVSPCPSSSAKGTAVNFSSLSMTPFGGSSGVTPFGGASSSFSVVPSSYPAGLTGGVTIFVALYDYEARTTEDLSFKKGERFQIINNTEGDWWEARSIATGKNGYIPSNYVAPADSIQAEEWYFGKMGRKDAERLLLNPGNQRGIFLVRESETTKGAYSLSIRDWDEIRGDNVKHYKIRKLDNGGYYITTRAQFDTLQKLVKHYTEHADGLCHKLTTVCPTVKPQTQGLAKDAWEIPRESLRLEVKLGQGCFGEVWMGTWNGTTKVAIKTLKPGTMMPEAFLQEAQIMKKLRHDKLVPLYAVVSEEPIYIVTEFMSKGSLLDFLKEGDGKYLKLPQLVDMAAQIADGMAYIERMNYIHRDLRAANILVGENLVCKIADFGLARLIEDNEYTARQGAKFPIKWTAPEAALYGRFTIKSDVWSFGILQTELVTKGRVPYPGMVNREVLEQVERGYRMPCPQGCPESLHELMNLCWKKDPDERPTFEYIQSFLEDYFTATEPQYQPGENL
T3 sequence (Q00535 whole entry): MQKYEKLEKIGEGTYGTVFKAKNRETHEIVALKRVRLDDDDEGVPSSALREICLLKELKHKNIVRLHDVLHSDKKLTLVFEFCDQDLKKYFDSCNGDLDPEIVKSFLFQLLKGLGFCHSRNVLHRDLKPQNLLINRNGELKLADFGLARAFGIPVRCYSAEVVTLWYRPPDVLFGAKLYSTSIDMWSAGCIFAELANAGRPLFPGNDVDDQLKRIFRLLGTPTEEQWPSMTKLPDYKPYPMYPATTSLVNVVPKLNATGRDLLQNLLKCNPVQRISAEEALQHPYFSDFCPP
T3 sequence (Q15078 2-307 partner limits assumed): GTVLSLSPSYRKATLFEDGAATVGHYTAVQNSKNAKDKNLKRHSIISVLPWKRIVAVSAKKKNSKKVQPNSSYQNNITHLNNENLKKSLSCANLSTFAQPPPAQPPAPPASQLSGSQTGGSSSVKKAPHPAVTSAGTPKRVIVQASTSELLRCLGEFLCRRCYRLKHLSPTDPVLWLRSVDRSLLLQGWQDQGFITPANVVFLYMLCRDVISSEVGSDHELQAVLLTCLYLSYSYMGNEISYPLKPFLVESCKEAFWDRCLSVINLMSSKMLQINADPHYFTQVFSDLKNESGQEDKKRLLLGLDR

Sequence	% activity (GSK3α (h)) [%]	% activity (DMPK (h)) [%]	% activity (Yes (h)) [%]	% activity (SIK (h)) [%]	% activity (WNK3 (h)) [%]	% activity (FGFR1 (h)) [%]	% activity (Rsk4 (h)) [%]	% activity (CDK5/p35 (h)) [%]	% activity (IRR (h)) [%]	% activity (Itk (h)) [%]	% activity (Flt1 (h)) [%]	% activity (PKCγ (h)) [%]	% activity (NEK6 (h)) [%]	% activity (Met(Y1248C) (h)) [%]	% activity (MSK1 (h)) [%]	% activity (TrkB (h)) [%]	% activity (SAPK4 (h)) [%]	% activity (Met(Y1248D) (h)) [%]
FAKLAARLYRKALARQLGVAA [MMI-0300]	157	59	67	66	77	55	90	79	8	77	69	89	82	84	32	5	96	
HRRIKAWLKKIKALARQLGVAA (Mammalian) [MMI-0500]	175	12		40	9	18	29	59	10	7	27	6	49	73	8	12	48	218
KAFAKLAARLYRKALARQLGVAA [MMI-0400]	164	54	14	68	74	59	91	76	8	63	48	79	85	36	28	8	91	31
YARAAARQARAKALNRQLGVA (Mammalian) [MMI-0200]		66	93		97	97	125	92	69	98	96	101	98	141	50	7		118
